Test results: patent US20210170047A1 (CASE WESTERN RESERVE UNIVERSITY, published 2021)
Ends that are not written are not given here.

Experiments:
[1] = molecular target: T1, integrin αIIbβ3 (glycoprotein GPIIb-IIIa) on ADP-activated human platelets (human, UniProt P08514 32-1039; P05106 27-788); test: cell-based or functional assay
[2] = molecular target: T2, P-selectin on ADP-activated human platelets (human, UniProt P16109 42-830); test: fluorescence microscopy, static, collagen-adhered activated human platelets
T2 construct: whole, on cells; also called CD62P; P-selectins
T2 sequence (looked up): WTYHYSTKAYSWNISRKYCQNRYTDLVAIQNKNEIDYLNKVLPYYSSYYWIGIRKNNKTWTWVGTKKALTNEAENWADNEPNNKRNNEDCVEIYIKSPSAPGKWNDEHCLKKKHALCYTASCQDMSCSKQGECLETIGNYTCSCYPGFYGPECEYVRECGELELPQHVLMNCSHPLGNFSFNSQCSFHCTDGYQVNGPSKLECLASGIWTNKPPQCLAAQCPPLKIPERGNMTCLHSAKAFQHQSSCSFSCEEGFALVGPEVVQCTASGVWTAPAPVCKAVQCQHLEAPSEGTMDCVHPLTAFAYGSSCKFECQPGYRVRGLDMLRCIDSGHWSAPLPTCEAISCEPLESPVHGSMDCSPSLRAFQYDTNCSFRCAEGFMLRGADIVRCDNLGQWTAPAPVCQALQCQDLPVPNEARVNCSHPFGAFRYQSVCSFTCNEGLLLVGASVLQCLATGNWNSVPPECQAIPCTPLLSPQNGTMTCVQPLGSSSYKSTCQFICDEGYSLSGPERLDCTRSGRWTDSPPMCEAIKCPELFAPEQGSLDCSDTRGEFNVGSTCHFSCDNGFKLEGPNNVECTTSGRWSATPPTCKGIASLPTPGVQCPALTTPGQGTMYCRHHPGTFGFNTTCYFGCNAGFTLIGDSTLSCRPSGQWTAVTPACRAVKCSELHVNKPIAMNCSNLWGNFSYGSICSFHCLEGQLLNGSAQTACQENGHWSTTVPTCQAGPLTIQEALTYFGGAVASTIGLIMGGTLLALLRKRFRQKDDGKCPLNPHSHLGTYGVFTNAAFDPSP
Procedure: Receptor-specific binding studies in a static environment human whole blood was obtained from healthy, aspirin-refraining donors by venipuncture following IRB-approved protocol and collected in citrated tubes. Platelet-rich-plasma (PRP) was obtained from the whole blood by centrifugation (150×g, 15 min, room temperature), and platelet concentration was verified at 200×10⁶ platelets/ml. The platelets in PRP were activated using ADP at a concentration of 2×10⁻⁵M, and were allowed to adhere to glass coverslips pre-coated with collagen. […] After 1 h of incubation, the coverslips were gently washed with PBS to remove loosely bound liposomal constructs and imaged using fluorescence microscopy. […] D1 inverted fluorescence microscope fitted with a photometrics chilled CCD camera and a 63× objective using exposure time of 800 ms. To confirm that non-specific binding of the liposomes was not occurring, fluorescently-labeled peptide-modified liposomal constructs were incubated with coverslips coated with collagen only but no activated platelets, followed by gentle washing and imaged using fluorescence microscopy keeping same exposure times (800 ms).

[3] = molecular target: T1, integrin αIIbβ3 (glycoprotein …); test: dual fluorescence microscopy, co-incubation with peptide-modified liposomes
Procedure: The [fibrinogen: liposome] ratio in the incubation assays was maintained at 400:1 by mole, to provide a physiologically relevant competitive environment. […] A 40× oil-immersion objective was used to visualize fluorescence from platelets. Images were collected in MetaMorph™ (Universal Imaging Corp.), using an exposure time of 500 ms and intensity analysis was performed in the software accordingly. Fluorescence intensity was recorded as mean intensity per pixel area for statistical analysis. All coverslips were prepared in duplicate, and at least three fields were examined for each well.

[4] = molecular target: T1, integrin αIIbβ3 (glycoprotein …); test: flow cytometry, agonist-added human whole blood, 50 µM total lipid
Procedure: The effect of platelet activation on liposome binding was studied by a FACScan flow cytometer (Becton Dickinson) with a 488 nm laser and three color detector. For cytometry analysis whole blood aliquots with different platelet activation levels were used. The level of platelet-activation was assessed by simultaneous fluorescence staining of platelet integrin GPIIb-IIIa (with FITC-anti-CD41a) and P-Selectin (with PE-anti-CD62P). Previously we have reported on detecting progressive activation of platelets in freshly drawn blood with addition of agonists (e.g., ADP) and have confirmed that binding of RGD-modified liposomes to platelets increased in an activation-dependant manner. Following a similar protocol, whole blood aliquots containing predominantly activated platelets were incubated with PDPC-NBD-labeled cRGD-, lRGD-, or lRGE-modified liposomes at a final concentration of 50 μM total lipid. For the liposome incubated samples, FITC-anti-CD41a labeling was not used, while PE-anti-CD62P labeling was still used as an activated platelet marker. Simultaneous PE and NBD fluorescence, for gated platelet populations, was analyzed for ˜20,000 events (counts) per sample aliquot and fluorescence data were recorded accordingly. […]

[5] = molecular target: T1, integrin αIIbβ3 (glycoprotein …); test: flow cytometry, human whole blood with ADP pre-incubation, 50 µM total lipid
Excerpt: Parallel phase contrast image of the same field of view was obtained on the same microscope, by shutting off the fluorescence laser, turning on the phase contrast light source and changing the objective from fluorescence to a phase contrast one, at same magnification. To establish that the specific binding of cRGD-liposomes is predominantly to activated platelets compared to quiescent platelets, we performed flow cytometry assays similar to that described in previous publications from our group. Briefly, NBD-labeled cRGD liposomes were incubated with aliquots of freshly drawn human whole blood with or without the addition of agonist ADP. […] Following 30 min of liposome incubation, the aliquots were analyzed in a Becton-Dickinson FACScan flow cytometer for NBD fluorescence. All aliquots were measured in triplicate and approximately 15000 counts were recorded per aliquot. […] The NBD fluorescence intensity from aliquots without liposome incubation, aliquots with liposome incubation but without ADP pre-incubation, and aliquots with liposome incubation after ADP pre-incubation, were recorded as histograms and the plots were overlaid for comparison.

[6] = molecular target: T3, integrin GPIIb-IIIa on resting (predominantly inactive, no ADP) human platelets (human, UniProt P08514 32-1039; P05106 27-788); test: flow cytometry, human whole blood without agonist
T3 construct: whole, on cells; also called predominantly resting platelets
T3 sequence (P08514 32-1039, chain 1 of 2): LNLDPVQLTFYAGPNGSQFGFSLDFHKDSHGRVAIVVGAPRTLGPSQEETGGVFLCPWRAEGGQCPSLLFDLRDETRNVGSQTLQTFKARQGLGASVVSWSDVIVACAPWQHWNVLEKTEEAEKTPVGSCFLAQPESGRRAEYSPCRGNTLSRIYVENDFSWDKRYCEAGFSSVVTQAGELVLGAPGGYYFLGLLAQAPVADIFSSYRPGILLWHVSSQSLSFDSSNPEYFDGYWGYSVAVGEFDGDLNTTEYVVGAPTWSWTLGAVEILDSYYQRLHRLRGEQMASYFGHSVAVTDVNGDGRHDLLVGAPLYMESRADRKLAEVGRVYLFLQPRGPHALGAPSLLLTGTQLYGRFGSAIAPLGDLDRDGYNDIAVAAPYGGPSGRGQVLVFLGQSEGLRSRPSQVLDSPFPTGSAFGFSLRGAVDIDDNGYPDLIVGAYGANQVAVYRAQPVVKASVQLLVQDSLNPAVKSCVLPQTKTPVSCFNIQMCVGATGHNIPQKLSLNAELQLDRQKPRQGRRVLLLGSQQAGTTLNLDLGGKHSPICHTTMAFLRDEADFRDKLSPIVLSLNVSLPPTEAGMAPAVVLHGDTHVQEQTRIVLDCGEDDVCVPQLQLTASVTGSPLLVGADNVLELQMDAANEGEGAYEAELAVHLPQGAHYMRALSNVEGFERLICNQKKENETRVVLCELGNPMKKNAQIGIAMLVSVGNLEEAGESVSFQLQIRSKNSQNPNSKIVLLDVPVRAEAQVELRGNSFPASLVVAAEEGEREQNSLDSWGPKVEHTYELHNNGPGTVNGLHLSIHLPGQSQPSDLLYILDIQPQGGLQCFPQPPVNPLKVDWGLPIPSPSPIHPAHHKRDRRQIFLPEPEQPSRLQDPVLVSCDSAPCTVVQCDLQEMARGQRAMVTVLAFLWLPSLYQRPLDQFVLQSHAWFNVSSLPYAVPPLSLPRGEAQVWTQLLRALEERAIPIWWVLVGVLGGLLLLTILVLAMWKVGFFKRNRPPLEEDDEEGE
T3 sequence (P05106 27-788, chain 2 of 2): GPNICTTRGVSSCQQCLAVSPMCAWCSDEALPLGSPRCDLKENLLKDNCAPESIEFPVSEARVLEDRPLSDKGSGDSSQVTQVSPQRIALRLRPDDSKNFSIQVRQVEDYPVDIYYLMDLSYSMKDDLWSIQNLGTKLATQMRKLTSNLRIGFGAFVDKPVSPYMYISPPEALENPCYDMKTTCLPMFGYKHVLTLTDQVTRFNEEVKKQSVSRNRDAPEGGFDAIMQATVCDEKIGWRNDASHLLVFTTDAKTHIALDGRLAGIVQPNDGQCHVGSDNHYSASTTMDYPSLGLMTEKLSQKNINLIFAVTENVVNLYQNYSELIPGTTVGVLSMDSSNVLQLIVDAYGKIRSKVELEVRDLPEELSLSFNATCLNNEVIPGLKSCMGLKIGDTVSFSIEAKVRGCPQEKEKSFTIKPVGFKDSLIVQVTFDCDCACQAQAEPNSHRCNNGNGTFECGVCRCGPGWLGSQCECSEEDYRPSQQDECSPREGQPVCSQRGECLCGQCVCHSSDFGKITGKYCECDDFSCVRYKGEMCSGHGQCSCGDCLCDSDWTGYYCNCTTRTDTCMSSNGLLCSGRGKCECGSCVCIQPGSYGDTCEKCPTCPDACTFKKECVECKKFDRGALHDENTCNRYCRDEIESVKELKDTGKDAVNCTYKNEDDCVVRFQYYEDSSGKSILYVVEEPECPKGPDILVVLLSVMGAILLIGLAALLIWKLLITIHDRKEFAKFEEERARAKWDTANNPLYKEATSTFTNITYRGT

T1 sequence (P08514 32-1039, chain 1 of 2): as the sequence (P08514 32-1039, chain 1 of 2) above
T1 sequence (P05106 27-788, chain 2 of 2): as the sequence (P05106 27-788, chain 2 of 2) above

B1: free cyclic RGD peptide cyclo-CNPRGDY(OEt)RC (peptide)
peptide: CNPRGDYRC
modifications: Y(OEt); terminal cysteines (C) cyclized through disulfide
- IC50: concentration of peptide required to inhibit fibrinogen-mediated platelet aggregation in platelet-rich plasma by 50% (aggregometry), against lRGD [1]: ~1000 times lower than for lRGD
- IC50 estimation by aggregometry assay, against lRGD [1]: ~100 fold lower than for lRGD (printed as 2 orders of magnitude)

B2: DAEWVDVS-modified liposomes (liposomes surface-decorated with DSPE-PEG-DAEWVDVS) (peptide)
peptide: {DSPE‑PEG}-DAEWVDVS
modifications: also: displayed multivalently on ~150 nm liposome surface, 5 mol % (2.5-10 mol %)
notes: also called singly-targeted liposomes
- binding result [2]: binds

B3: human fibrinogen (ligand)
chain 1: ADSGEGDFLAEGGGVRGPRVVERHQSACKDSDWPFCSDEDWNYKCPSGCRMKGLIDEVNQDFTNRINKLKNSLFEYQKNNKDSHSLTTNIMEILRGDFSSANNRDNTYNRVSEDLRSRIEVLKRKVIEKVQHIQLLQKNVRAQLVDMKRLEVDIDIKIRSCRGSCSRALAREVDLKDYEDQQKQLEQVIAKDLLPSRDRQHLPLIKMKPVPDLVPGNFKSQLQKVPPEWKALTDMPQMRMELERPGGNEITRGGSTSYGTGSETESPRNPSSAGSWNSGSSGPGSTGNRNPGSSGTGGTATWKPGSSGPGSTGSWNSGSSGTGSTGNQNPGSPRPGSTGTWNPGSSERGSAGHWTSESSVSGSTGQWHSESGSFRPDSPGSGNARPNNPDWGTFEEVSGNVSPGTRREYHTEKLVTSKGDKELRTGKEKVTSGSTTTTRRSCSKTVTKTVIGPDGHKEVTKEVVTSEDGSDCPEAMDLGTLSGIGTLDGFRHRHPDEAAFFDTASTGKTFPGFFSPMLGEFVSETESRGSESGIFTNTKESSSHHPGIAEFPSRGKSSSYSKQFTSSTSYNRGDSTFESKSYKMADEAGSEADHEGTHSTKRGHAKSRPV
chain 2: QGVNDNEEGFFSARGHRPLDKKREEAPSLRPAPPPISGGGYRARPAKAAATQKKVERKAPDAGGCLHADPDLGVLCPTGCQLQEALLQQERPIRNSVDELNNNVEAVSQTSSSSFQYMYLLKDLWQKRQKQVKDNENVVNEYSSELEKHQLYIDETVNSNIPTNLRVLRSILENLRSKIQKLESDVSAQMEYCRTPCTVSCNIPVVSGKECEEIIRKGGETSEMYLIQPDSSVKPYRVYCDMNTENGGWTVIQNRQDGSVDFGRKWDPYKQGFGNVATNTDGKNYCGLPGEYWLGNDKISQLTRMGPTELLIEMEDWKGDKVKAHYGGFTVQNEANKYQISVNKYRGTAGNALMDGASQLMGENRTMTIHNGMFFSTYDRDNDGWLTSDPRKQCSKEDGGGWWYNRCHAANPNGRYYWGGQYTWDMAKHGTDDGVVWMNWKGSWYSMRKMSMKIRPFFPQQ
chain 3: YVATRDNCCILDERFGSYCPTTCGIADFLSTYQTKVDKDLQSLEDILHQVENKTSEVKQLIKAIQLTYNPDESSKPNMIDAATLKSRKMLEEIMKYEASILTHDSSIRYLQEIYNSNNQKIVNLKEKVAQLEAQCQEPCKDTVQIHDITGKDCQDIANKGAKQSGLYFIKPLKANQQFLVYCEIDGSGNGWTVFQKRLDGSVDFKKNWIQYKEGFGHLSPTGTTEFWLGNEKIHLISTQSAIPYALRVELEDWNGRTSTADYAMFKVGPEADKYRLTYAYFAGGDAGDAFDGFDFGDDPSDKFFTSHNGMQFSTWDNDNDKFEGNCAEQDGSGWWMNKCHAGHLNGVYYQGGTYSKASTPNGYDNGIIWATWKTRWYSMKKTTMKIIPFNRLTIGEGQQHHLGGAKQAGDV
notes: the fibrinogen of human platelet-rich plasma in the aggregometry assay; also called Fg
- binding result [3]: binds

B4: cRGD-liposomes (liposomes surface-decorated with DSPE-PEG-cRGD, cyclo-CNPRGDY(OEt)RC) (peptide)
peptide: CNPRGDYRC
modifications: not fully specified; Y(OEt); terminal cysteines cyclized through disulfide; N-terminus conjugated to DSPE-PEG lipid, displayed on the liposome surface
notes: NBD or Nanogold label; also called cyclic RGD-modified liposomes
- platelet-associated NBD fluorescence against lRGD-liposome-incubated aliquots [4]: ~10 fold (printed as an order of magnitude)
- NBD fluorescence of ADP-activated platelets against inactive platelets [5]: ~100 fold (printed as two orders of magnitude)

B5: RGE-liposomes (liposomes surface-decorated with the negative control peptide GSSSGRGESPA) (peptide)
peptide: {DSPE‑PEG}-GSSSGRGESPA
modifications: also: displayed on liposome surface, 1 or 5 mol %
notes: also called lRGE-liposomes; constructs bearing negative control peptides
- binding result [6]: no binding (tested: 50 µM total lipid)
